Results on 2 substances are retold here after article PMC8927971.

This series deals with CIZ1 N571 (GST-N571) (Mus musculus). The series is described as follows: EMSA. As to conditions: 0.3 nM RNA; 10 mM Tris-HCl pH 7.5, 30 mM NaCl, 2.5 mM MgCl2, 0.2 mM DTT, 0.1% IGEPAL CA-630, 0.1 mg/ml yeast tRNA, 0.4 U RNaseOUT, 1% glycerol; 30 C 20 min; 0.7% agarose ….

Xist repeat E proximal displayed a K half of 100 nM.
As to Xist repeat A, the K half is 200 nM.
